Assay results: US20170015742A1 (published 2017)

How the values were obtained:
[1] = molecular target: T1, recombinant human VEGF165 (human, UniProt P15692 207-395); test: competition ELISA: antibody titrated against biotinylated hVEGF165, binding to plate-coated hVEGF-R2-Fc
T1 construct: also called hVEGF165
Description: (§1) To identify molecules that could block the binding of hVEGF₁₆₅ to the hVEGF-R2 (KDR/Flk-1) receptor, a competition ELISA was performed. […] Plates were then washed four times with wash buffer (TBS, 0.05% Tween-20) and blocked with Superblock blocking buffer (Thermo Scientific, cat#37535). […] The pre-incubated sample/hVEGF₁₆₅ complex was added to the coated plate at 50 μL in duplicate and incubated for 30 minutes at 25° C. with shaking. Following incubation, plates were washed four times with wash buffer. Streptavidin-polyHRP-40 (Fitzgerald cal#65r-s104phrp) was diluted in assay diluent (10% Superblock containing 0.05% surfactamps) and added to plates (50 μL) for 45 minutes at 25° C. with shaking. Plates were washed four times with wash buffer and developed with the addition of Enhanced K-blue TMB substrate (Neogen cat#308177). The reaction was stopped with 2N sulfuric acid (VWR, cat# BDH3500-1) and the absorbance was read at 450 nm-570 nm. A decrease in observed optical density indicates the test molecule is blocking the hVEGF₁₆₅ binding to the hVEGF-R2-Fc. Data was analyzed using Softmax Pro 4.8 software and IC₅₀ values calculated using a sigmoidal dose response (variable slope) fit in GraphPad Prism 5.
(§2) Affinity matured humanized anti-VEGF antibodies were characterized for hVEGF₁₆₅ binding and potency. Binding affinity of these molecules to hVEGF₁₆₅ was determined by Biacore analysis (Example 1.1). Potency was evaluated in both cell-based and ELISA formats. The ability to block binding of hVEGF₁₆₅ to hVEGFR2 was evaluated in a competition ELISA (Example 1.4) Inhibition of hVEGF₁₆₅-induced cell proliferation was assessed using HMVEC-d cells (Example 1.10).

[2] = molecular target: T1, recombinant human VEGF165; test: cell-based or functional assay
[3] = molecular target: T1, recombinant human VEGF165; test: SPR (Biacore), antibody captured by anti-human Fc, hVEGF165 in solution
Description: (§3) Unreacted moieties on the biosensor surface were blocked with ethanolamine. For kinetic analysis, rate equations derived from the 1:1 Langmuir binding model were fitted simultaneously to multiple antigen injections (using global fit analysis) with the use of Scrubber 2 (BioLogic Software), Biacore Biaevaluation 4.0.1 software or Biacore T100 Evaluation software. Purified antibodies or DVD-Ig molecules were diluted in running buffer for capture across goat anti-human Fc reaction surfaces. Antibodies or DVD-Ig molecules to be captured as a ligand (1 μg/ml) were injected over reaction matrices at a flow rate of 10 μl/minute. During the assay, all measurements were referenced against the capture surface alone (i.e., with no captured antibody or DVD-Ig molecule). […] The equilibrium dissociation constant KD (M) of the reaction between antibodies and the target antigen was then calculated from the kinetic rate constants by the following formula: KD=Koff/Kₒₙ. Binding was recorded as a function of time and kinetic rate constants were calculated. In this assay, on-rates as fast as 10⁶M⁻¹s⁻¹ and off-rates as slow as 10⁻⁶ s⁻¹ could be measured.
as §2

Human VEGF-A 165 = molecular target: T2, Human VEGF-A 165 (human, UniProt P15692 207-395); test: receptor competition ELISA, hVEGF165 binding to coated hVEGF-R2-Fc
T2 construct: Recombinant; also called huVEGF-A165; hVEGF165
T2 sequence (P15692 other isoform, or with tags, fused parts or gaps limits assumed): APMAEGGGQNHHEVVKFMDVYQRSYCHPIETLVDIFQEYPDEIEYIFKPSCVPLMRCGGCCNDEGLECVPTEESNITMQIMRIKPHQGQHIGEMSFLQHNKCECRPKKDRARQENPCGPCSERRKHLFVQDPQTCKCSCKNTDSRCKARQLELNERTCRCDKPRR
Description: as §1
Anti-VEGF-A antibodies derived from rat hybridomas were characterized for binding, function and cross-reactivity in a panel of assays. Supernatants were tested for the ability to bind hVEGF₁₆₅ (Example 1.3) and block binding of hVEGF₁₆₅ to hVEGFR2 in a competition ELISA format (Example 1.4).

Human PDGF-BB = molecular target: T3, Human PDGF-BB (human, UniProt P01127 82-190); test: Biacore SPR (Example 1.1)
T3 construct: Recombinant human PDGF-BB, a dimer of two B chains; also called huPDGF-BB; hPDGF-BB
T3 sequence (P01127 82-190 limits assumed): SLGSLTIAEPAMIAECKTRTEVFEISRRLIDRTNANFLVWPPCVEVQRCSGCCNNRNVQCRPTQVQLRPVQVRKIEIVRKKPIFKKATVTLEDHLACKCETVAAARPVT
Description: as §3

[4] = molecular target: recombinant murine PDGF-BB (mouse, UniProt P31240 82-190); test: cell-based or functional assay
Sequence of recombinant murine PDGF-BB (P31240 82-190 limits assumed): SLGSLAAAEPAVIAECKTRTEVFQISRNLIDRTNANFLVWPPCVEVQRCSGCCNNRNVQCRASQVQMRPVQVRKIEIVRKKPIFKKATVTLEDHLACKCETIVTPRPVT

T1 sequence (P15692 other isoform, or with tags, fused parts or gaps limits assumed): as the sequence (P15692 other isoform, or with tags, fused parts or gaps limits assumed) above

| Binder | IC50 [1] | hVEGF165 IC50 (nM), Potency HMVEC-d (hVEGF165-induced proliferation) [2] | Kd [3] | kon [3] | IC50 (Human VEGF-A 165) | Kd (Human PDGF-BB) | kon (Human PDGF-BB) | Potency IC50 (nM) mPDGF-BB (NIH-3T3 proliferation) [4] |
| --- | --- | --- | --- | --- | --- | --- | --- | --- |
| CL-34475-IgG (antibody, V domains shown, also called h4G8 CL-34475) VH: EVQLVQSGSELKKPGASVKVSCKASGYTFTDYGMYWVRQAPGQGLEWMGWIDTETGEPTYADDFKGRFVFSLDTSVSTAYLQISSLKAEDTAVYYCARTNYYYSSYMFYFDYWGQGTMVTVSS VL: EIVLTQSPATLSLSPGERATLSCRASQSVSTHMHWYQQKPGQAPRLLIYGASNLESGIPARFSGSGSGTDFTLTISSLEPEDFAVYYCQQSWYDPLTFGQGTKLEIK | < 0.1 nM | 0.106 nM | 0.00052 nM | 2.7e+07 M⁻¹ s⁻¹ | – | – | – | – |
| CL-34455-IgG (antibody, V domains shown, also called h4G8 CL-34455) VH: EVQLVQSGSELKKPGASVKVSCKASGYTFTNYGMYWVRQAPGQGLEWMGWIDTETGEPTYAQGFTGRFVFSLDTSVSTAYLQISSLKAEDTAVYYCARTNYYYPSYMFYFDYWGQGTMVTVSS VL: EIVLTQSPATLSLSPGERATLSCRASQSVGTHMHWYQQKPGQAPRLLIYGASKLESGVPARFSGSGSGTDFTLTISSLEPEDFAVYYCQQSWYDPLTFGQGTKLEIK | < 0.1 nM | 0.105 nM | 0.00046 nM | 2.2e+07 M⁻¹ s⁻¹ | – | – | – | – |
| CL-34540-IgG (antibody, V domains shown, also called h4G8 CL-34540) VH: EVQLVQSGSELKKPGASVKVSCKASGYTFTDYGMYWVRQAPGQGLEWMGWIDTETGQPTYADDFKGRFVFSLDTSVSTAYLQISSLKAEDTAVYYCARTNYYYRSYMFYFDYWGQGTMVTVSS VL: EIVLTQSPATLSLSPGERATLSCRASESVGKHMHWYQQKPGQAPRLLIYAASNLESGVPARFSGSGSGTDFTLTISSLEPEDFAVYYCQQSWYDPLTFGQGTKLEIK | < 0.1 nM | 0.139 nM | 0.00085 nM | 8.4e+06 M⁻¹ s⁻¹ | – | – | – | – |
| CL-34522-IgG (antibody, V domains shown, also called h4G8 CL-34522) VH: EVQLVQSGSELKKPGASVKVSCKASGYTFENYGMYWVRQAPGQGLEWMGWIDTETGEPTYADDFKGRFVFSLDTSVSTAYLQISSLKAEDTAVYYCARTNYYYSSYMFYFDYWGQGTMVTVSS VL: EIVLTQSPATLSLSPGERATLSCRASQSVGTHMHWYQQKPGQAPRLLIYGASKLESGVPARFSGSGSGTDFTLTISSLEPEDFAVYYCQQSWYDPLTFGQGTKLEIK | < 0.1 nM | 0.116 nM | 0.00053 nM | 2e+07 M⁻¹ s⁻¹ | – | – | – | – |
| CL-34538-IgG (antibody, V domains shown, also called h4G8 CL-34538) VH: EVQLVQSGSELKKPGASVKVSCKASGYTFTDYGMYWVRQAPGQGLEWMGWIDTETGEPTYADDFKGRFVFSLDTSVSTAYLQISSLKAEDTAVYYCARTNYYYPSYMFYFDYWGQGTMVTVSS VL: EIVLTQSPATLSLSPGERATLSCRASQSVSTHMHWYQQKPGQAPRLLIYGASNLESGVPARFSGSGSGTDFTLTISSLEPEDFAVYFCQQTWYDPLTFGQGTKLEIK | < 0.1 nM | 0.127 nM | 0.00024 nM | 3.3e+07 M⁻¹ s⁻¹ | – | – | – | – |
| CL-34633-IgG (antibody, V domains shown, also called h4G8 CL-34633) VH: EVQLVQSGSELKKPGASVKVSCKASGYTFSDYGMYWVRQAPGQGLEWMGWIDTETGEPTYADDFKGRFVFSLDTSVSTAYLQISSLKAEDTAVYYCARTNYYYRSYMFYFDYWGQGTMVTVSS VL: EIVLTQSPATLSLSPGERATLSCRASQSVSTHMHWYQQKPGQAPRLLIYGASNLESGVPARFSGSGSGTDFTLTISSLEPEDFAVYFCQQSWYDPLTFGQGTKLEIK | < 0.1 nM | 0.138 nM | 0.00024 nM | 1.7e+07 M⁻¹ s⁻¹ | – | – | – | – |
| CL-34565-IgG (antibody, V domains shown, also called h4G8 CL-34565) VH: EVQLVQSGSELKKPGASVKVSCKASGYTFTDYGMYWVRQAPGQGLEWMGWIDTETGDPTYADDFKGRFVFSLDTSVSTAYLQISSLKAEDTAVYYCARTNYYYRNYMFYFDYWGQGTMVTVSS VL: EIVLTQSPATLSLSPGERATLFCRASQSVSNHMHWYQQKPGQAPRLLIYGASILESGVPARFSGSGSGTDFTLTISSLEPEDFAVYYCQQSWYDPITFGQGTKLEIK | < 0.1 nM | 0.126 nM | 0.0004 nM | 2e+07 M⁻¹ s⁻¹ | – | – | – | – |
| CL-34570-IgG (antibody, V domains shown, also called h4G8 CL-34570) VH: EVQLVQSGSELKKPGASVKVSCKASGYTFDDYGMYWVRQAPGQGLEWMGWIDTETGTPTYADDFKGRFVFSLDTSVSTAYLQISSLKAEDTAVYYCARTNYYYSSYMFYFDYWGQGTMVTVSS VL: EIVLTQSPATLSLSPGERATLSCRASQSVSTHMHWYQQKPGQAPRLLIYGASNLESGIPARFSGSGSGTDFTLTISSLEPEDFAVYYCQQSWYDPLTFGQGTKLEIK | < 0.1 nM | 0.11 nM | 0.00029 nM | 1.9e+07 M⁻¹ s⁻¹ | – | – | – | – |
| BEW-164-C4 (antibody, IgG2b, V domains shown, Rat hybridoma antibody, isotype IgG2b/kappa; also called BEW-1B4-C4) VH: QIQLVQSGPELKKPGESVKISCKASGYSFTNYGMYWVKQAPGQGLQYMGWIDTETGKPTYTDDFKGRFVFFLETSASTAYLQINNLKNEDMATYFCARWSGDTAGIRGPWFAYWGQGTLVTVSS VL: DIRMTQSPASLSASLGETVNIECLASEDIYSDLAWYQQKPGKSPQLLIYNANDLQKGVPSRFSGSGSGTQYSLKINSLQSEDVATYFCQQYNYYPGTFGAGTKLELK | – | – | – | – | 0.18 nM | – | – | – |
| BDI-5G2-F9 (antibody, V domains shown) VH: QVTLKESGPGILQPSQTLSLTCTFSGFSLSTFGMGVGWIRQPSGKGLEWLANIWWDDDKYYNPSLKNRLTISKDTSNSQAFLEITNVDTADTATYYCARISTGISSYYVMDAWGQGASVTVSS VL: QFTLTQPKSVSGSLRSTITIPCERSSGDIGDTYVSWYQQHLGRPPINVIYGNDQRPSEVSDRFSGSIDSSSNSASLTITNLQMDDEADYFCQSYDSDIDIVFGGGTKLTVL | – | – | – | – | – | ≤ 0.0001 nM | ≥ 1e+07 M⁻¹ s⁻¹ | – |
| BDI-5H1-F6 (antibody, V domains shown) VH: QVTLKESGPGILQPSQTLSLTCTFSGFSLSTFGMGVGWIRQPSGKGLEWLANIWWDDDKYYNPSLKNRLTISKDTSNSQAFLEITNVDTADTATYYCARISTGISSYYVMDAWGQGASVTVSS VL: QFTLTQPKSVSGSLRSTITIPCERSSGDIGDTYVSWYQQHLGRPPINVIYGNDQRPSEVSDRFSGSIDSSSNSASLTITNLQMDDEADYFCQSYDSDIDIVFGGGTKLTVL | – | – | – | – | – | ≤ 0.0001 nM | ≥ 1e+07 M⁻¹ s⁻¹ | – |
| 4G8.3-SL-9E8.4E anti-VEGF-A/anti-PDGF-BB DVD-Ig (PR-1575834) (bispecific antibody, human IgG1, kappa, L234A L235A) heavy: EVQLVQSGSELKKPGASVKVSCKASGYTFTNYGMYWVRQAPGQGLEWMGWINTETGKPTYADDFKGRFVFSLDTSVSTAYLQISSLKAEDTAVYYCARTNYYYRSYIFYFDYWGQGTMVTVSSASTKGPEVTLRESGPALVKPTQTLTLTCTFSGFSLSTYGMGVGWIRQPPGKALEWLANIWWDDDKYYNPSLKNRLTISKDTSKNQVVLTMTNMDPVDTATYYCARIESIGTTYSFDYWGQGTMVTVSSASTKGPSVFPLAPSSKSTSGGTAALGCLVKDYFPEPVTVSWNSGALTSGVHTFPAVLQSSGLYSLSSVVTVPSSSLGTQTYICNVNHKPSNTKVDKKVEPKSCDKTHTCPPCPAPEAAGGPSVFLFPPKPKDTLMISRTPEVTCVVVDVSHEDPEVKFNWYVDGVEVHNAKTKPREEQYNSTYRVVSVLTVLHQDWLNGKEYKCKVSNKALPAPIEKTISKAKGQPREPQVYTLPPSREEMTKNQVSLTCLVKGFYPSDIAVEWESNGQPENNYKTTPPVLDSDGSFFLYSKLTVDKSRWQQGNVFSCSVMHEALHNAYTQKSLSLSPGK light: DTVLTQSPATLSLSPGERATLSCRASESVSTHMHWYQQKPGQAPRLLIYGASNLESGVPARFSGSGSGTDFTLTISSLEPEDFAVYFCQQSWNDPFTFGQGTKLEIKRTVAAPSVFIFPPEFVLTQSPGTLSLSPGERATLSCERSSGDIGESYVSWYQQKPGQAPRLVIYADDQRPSGIPDRFSGSGSGTDFTLTISRLEPEDFAVYYCQSYDINIDIVFGGGTKVEIKRTVAAPSVFIFPPSDEQLKSGTASVVCLLNNFYPREAKVQWKVDNALQSGNSQESVTEQDSKDSTYSLSSTLTLSKADYEKHKVYACEVTHQGLSSPVTKSFNRGEC | – | – | – | – | – | – | – | 0.772 nM |
